From publication PMC7308506

What was measured:
[1] = target: LCTX-F2 (Lycosa singoriensis); assay: SPR; Biacore 3000; LCTX-F2 amine-coupled to CM5 (2,000 RU); FXIIa, kallikrein, FXa and thrombin as analytes, 0-100 ug/ml in twofold dilutions; 25 C; HBS-EP (10 mM HEPES pH 7.4, 3 mM EDTA, 150 mM NaCl, 0.05% P20); 30 ul/min, 120 s association, 300 s dissociation
[2] = target: activated factor XII
[3] = target: activated factor X
[4] = target: kallikrein
[5] = target: thrombin (UniProt P00734)

Question: Which Kd [1] does the source give for activated factor XII (enzyme) here?
Answer: 7200 nM

Question: “thrombin (from UniProt P00734 364-622; P00734 364-622) (enzyme)” was tested. Which Kd [1] did it give?
Answer: 700 nM

Question: Which Kd [1] does the source give for kallikrein (enzyme) here?
Answer: 4600 nM

Question: With LCTX-F2 (peptide) as the substance, how does the increase of the relative protease activity of FXIIa (chromogenic substrate) at 0.03, 0.3 and 3 µM LCTX-F2: 1.2%, 44.0%, 96.0% [2] read?
Answer: 96%

Question: And the increase of the activity of FXa (chromogenic substrate) at 3 µM LCTX-F2 [3]?
Answer: 34.8%

Question: And the increase of the activity of kallikrein (chromogenic substrate) at 3 µM LCTX-F2 [4]?
Answer: 33.3%

Question: And the increase of the activity of thrombin (chromogenic substrate) at 3 µM LCTX-F2 [5]?
Answer: 36.9%

Question: With activated factor X (enzyme) as the substance, how does the Kd [1] read?
Answer: 180 nM
